Series [1] concerns the target T3 SAMase E68Q/Q94A, C-terminally His6-tagged (bacteriophage T3) (UniProt P07693). The experiment in a line: SEC-SAXS. A general note: SEC sorts molecules by how far they enter the pores of the column.
Series [2] has as its target T3 SAMase, wild type, C-terminally His6-tagged (bacteriophage T3) (UniProt P07693). The experiment in a line: SEC-SAXS.
The target is the same in series [3]. The experiment in a line: cryo-EM structure.
The target in series [4] is T3 SAMase E68Q/Q94A, C-terminally His6-tagged (bacteriophage T3) (UniProt P07693). The experiment in a line: mass photometry.
Series [5] concerns the molecule itself. The experiment in a line: cryo-EM structure.

B1: MetK, SAM synthase (methionine adenosyltransferase) of E. coli, endogenous (enzyme, UniProt P0A817 1-384, looked up)
chain: MAKHLFTSESVSEGHPDKIADQISDAVLDAILEQDPKARVACETYVKTGMVLVGGEITTSAWVDIEEITRNTVREIGYVHSDMGFDANSCAVLSAIGKQSPDINQGVDRADPLEQGAGDQGLMFGYATNETDVLMPAPITYAHRLVQRQAEVRKNGTLPWLRPDAKSQVTFQYDDGKIVGIDAVVLSTQHSEEIDQKSLQEAVMEEIIKPILPAEWLTSATKFFINPTGRFVIGGPMGDCGLTGRKIIVDTYGGMARHGGGAFSGKDPSKVDRSAAYAARYVAKNIVAAGLADRCEIQVSYAIGVAEPTSIMVETFGTEKVPSEQLTLLVREFFDLRPYGLIQMLDLLHPIYKETAAYGHFGREHFPWEKTDKAQLLRDAAGLK
Turning to B1, the stoichiometry N (SAMase per MetK subunit (4:4)) in series [1], in series [2], in series [3] and in series [4] was 1 each time. For the same molecule, in series [5], the stoichiometry N (in general, the number of molecules, sites or subunits per partner or assembly) was 4.

For the origin of these results see publication doi:10.1101/2023.02.27.530186 (bioRxiv, 2023).
